Experimental findings from PMC8760489 (The Journal of Biological Chemistry, 2021) are described below.

The assay deals with T1, His6-TviD (Salmonella enterica serovar Typhi, UniProt Q04974 1-831).
T1 sequence: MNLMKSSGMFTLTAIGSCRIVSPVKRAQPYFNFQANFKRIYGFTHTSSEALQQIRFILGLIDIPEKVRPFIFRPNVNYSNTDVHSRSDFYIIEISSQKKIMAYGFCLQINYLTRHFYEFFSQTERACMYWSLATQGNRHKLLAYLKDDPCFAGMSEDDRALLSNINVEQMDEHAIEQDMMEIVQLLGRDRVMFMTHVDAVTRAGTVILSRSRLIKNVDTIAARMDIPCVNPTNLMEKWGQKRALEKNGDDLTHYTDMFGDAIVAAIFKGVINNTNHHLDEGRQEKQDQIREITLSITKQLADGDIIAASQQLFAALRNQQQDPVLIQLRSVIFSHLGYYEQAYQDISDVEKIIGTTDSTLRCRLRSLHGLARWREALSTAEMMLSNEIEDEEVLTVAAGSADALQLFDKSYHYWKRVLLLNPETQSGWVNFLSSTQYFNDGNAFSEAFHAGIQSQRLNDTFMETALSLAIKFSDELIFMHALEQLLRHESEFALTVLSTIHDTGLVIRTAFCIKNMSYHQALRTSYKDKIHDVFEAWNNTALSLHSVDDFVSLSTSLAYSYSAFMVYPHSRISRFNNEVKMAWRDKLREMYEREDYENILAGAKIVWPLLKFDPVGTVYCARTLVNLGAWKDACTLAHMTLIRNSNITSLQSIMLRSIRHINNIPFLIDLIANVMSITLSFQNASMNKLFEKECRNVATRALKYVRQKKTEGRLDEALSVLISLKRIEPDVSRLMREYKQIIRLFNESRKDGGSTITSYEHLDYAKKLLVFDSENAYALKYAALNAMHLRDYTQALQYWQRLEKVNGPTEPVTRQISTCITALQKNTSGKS
As to the kind of experiment: […].

B1: TviE-FLAG (enzyme)
chain: MITQEEKLAALGKTCLTLKQEKKLAQAVALIDSELPTEALTSLAMLKKAEFLHDVNETERAYALYETLIAQNNDEARYEYARRLYNTGLAKDAQLILKKVSNGVQKKYNNYLGKINKICDLLERLEGKAIPVGTNTCIIAMKHAILFYRNRQPRQLPVGSFGRLALCTGSLGSGGAERQISRLAIEIARKYRQKGKIGGLKVEEPVELIIRSLTPELRQDFFLKEVLEEQVEVLEIAKITGNLFDDATIESPELRLLLSHLPPVCKYGIKHLVPHLCERKLDYLSVWQDSACLMIALAALIAGVPRIQLGLRGLPPVVRKRLFKPEYEPLYQALAVVPGVDFMSNNHCVTRHYADWLKLEAKHFQVVYNGVLPPSTEPSSEVPHKIWQQFTQKTQDADTTIGGVFRFVGDKNPFAWIDFAARYLQHHPATRFVLVGDGDLRAEAQKRAEQLGILERILFVGASRDVGYWLQKMNVFILFSRYEGLPNVLIEAQMVGVPVISTPAGGSAECFIEGVSGFILDDAQTVNLDQACRYAEKLVNLWRSRTGICQQTQSFLQERFTVEHMVGTFVKTIASQPR
For the molecule B1, the binding result is on record as “binds”.
